The supplement of paper PMC9732359
± gives the uncertainty stated by the source.

Test: protein stability index of a GFP-peptide fusion (yeast GPS) (PSI 1-4); higher = more stable; sorted into four equal gates, so the index is relative within each strain
Conditions: ubr1∆
Outline: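 Tiled yeast protein peptides of 17 residues were each joined downstream of GFP, on plasmids that also express Cherry. The pooled library was maintained in yeast, and mid-log cultures in leucine-free medium were sorted into four equal gates on the GFP/Cherry ratio. Plasmids from every gate were amplified by PCR and sequenced on Illumina, with barcodes linking reads to strains. The protein stability index of a peptide is its gate-number-weighted read frequency summed over the gates.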

First: DQCKKQRRCLHCGALNG [RPO31]
Second: DQEIVIQQLHSVLNPFL [ISW2]
The protein stability index of the first is higher: 2.57 ± 0.11 for the first, 2.26 ± 0.032 for the second.

Going from DQITKMKDRLVEWNDQV [RPN9] to DQLDSEAASITRKSLNN [ECM29], the protein stability index falls from 3.29 ± 0.079 to 2.95 ± 0.049.

DQPQSSEAKRTKFSNPA [BRR2] and DQTNHIESDSILNLLNI [ECM29] are within error of each other in protein stability index: 3.13 ± 0.084 for the first, 3.03 ± 0.059 for the second.

Going from DRAQNSYQPMYQRPMQV [SSN3] to DRGLSIKLNGSTLLCTD [SNU114], the protein stability index rises from 2.64 ± 0.041 to 3 ± 0.2.

Going from DRIIHTWRTQLAASEIG [ECM29] to DRKIQGWLGALTMANLP [ARP7], the protein stability index rises from 1.83 ± 0.035 to 2.81 ± 0.045.

Compared with DRRAQRVAEKRDALLKE [RPL19A], DRVQQDSEDEDSMKDTT [YML031W/NDC1] is lower in protein stability index: 3.44 ± 0.067 for the first, 3.25 ± 0.07 for the second.

DSAKEWPQSKNCEYEDP [RPB3] and DSEIEISSEKLLTLTNA [RPP1A] are within error of each other in protein stability index: 3.27 ± 0.14 for the first, 3.12 ± 0.055 for the second.

Going from DSHKRIPDMSKNVELGW [SNU114] to DSIDLAPNTLTNILISP [YML103C/NUP188], the protein stability index falls from 3.41 ± 0.097 to 1.56 ± 0.19.

First: DSIPRDVAYLLKSESAT [YGL172W/NUP49]
Second: DSLKLNSKPVELKPVSL [YJL041W/NSP1]
The protein stability index of the first is higher: 3.19 ± 0.074 for the first, 2.63 ± 0.1 for the second.

First: DSLSVPKVSAGDSGISP [SIR4]
Second: DSTIGNSKVDMKYDIFA [IRR1]
The protein stability index of the first is higher: 3.18 ± 0.058 for the first, 2.88 ± 0.06 for the second.

Compared with DSTLILEQLAQHTTESD [RPB2], DTAGEESQQQDESLKDE [SWI3] is higher in protein stability index: 2.43 ± 0.052 for the first, 3.61 ± 0.29 for the second.

First: DTDNECVAAWGVCNHAF [HRT1]
Second: DTDSKPSSQSQNDTPMF [YLR018C/POM34]
The protein stability index of the first is higher: 3.15 ± 0.05 for the first, 2.95 ± 0.034 for the second.

Compared with DTIATSATPNAAAFSQQ [GAL11], DTLDSKSNGSSDDDNIG [ISW2] is higher in protein stability index: 2.82 ± 0.039 for the first, 3.03 ± 0.067 for the second.

Compared with DTRITPSKVSKIDSHVV [PRE6], DTTFSDFKEVEDFLHFI [SRB4] is lower in protein stability index: 2.72 ± 0.063 for the first, 2.56 ± 0.048 for the second.

First: DVCKTRFNHLVTRLFFI [YML031W/NDC1]
Second: DVEVDDDFTNELKAELD [SEM1]
The protein stability index of the first is lower: 1.77 ± 0.034 for the first, 3.36 ± 0.056 for the second.

Compared with DVKFPSNTTTQIQFTPL [SMC3], DVKKPFSFGTSQPNNTP [YLR335W/NUP2] is lower in protein stability index: 2.76 ± 0.052 for the first, 2.15 ± 0.064 for the second.

Going from DVLKSQANTEPENITKR [MCD1] to DVNIIGKDRIAINVFPE [RPO31], the protein stability index rises from 3.09 ± 0.046 to 3.36 ± 0.086.

Compared with DVNTNANANANATANAT [SNF11], DVQARRQFVSNVRSVIR [RPP1] is lower in protein stability index: 3.32 ± 0.063 for the first, 2.44 ± 0.13 for the second.

DVVYALKRQGRTLYGFG [HHF1] and DVYNRELDEHTTQIDLF [BRR2] are within error of each other in protein stability index: 2.38 ± 0.083 for the first, 2.41 ± 0.04 for the second.

Going from DWIRFVSTKTNEYRLAF [RPL22A] to DWVENELEALKLEAEEI [FAS2], the protein stability index rises from 2.62 ± 0.042 to 3.49 ± 0.24.

Going from DYITEAVFKIVLQPLLP [SNU114] to DYLKNIIVENSGTSGDE [RPN2], the protein stability index rises from 1.51 ± 0.055 to 3.29 ± 0.1.

Compared with DYNDVEVNSKKKNKRAL [BRR2], DYPFTQLGYIENSFYKK [POP1] is higher in protein stability index: 3.02 ± 0.061 for the first, 3.44 ± 0.13 for the second.

Going from DYQVQGLNWLISLHENK [ISW2] to DYVNKTNSHLPAGKQVE [FAS1], the protein stability index rises from 2.19 ± 0.054 to 3.08 ± 0.11.

Compared with EAAKPSLSFGSGSAGAN [YJL041W/NSP1], EAEIECFDSTTGRDAGF [RRP40] is higher in protein stability index: 3 ± 0.071 for the first, 3.2 ± 0.12 for the second.

Compared with EAESQLRAAQQQWGNDF [FAS2], EAESQWYIEKVIRIPMQ [CSI1] is lower in protein stability index: 3.23 ± 0.044 for the first, 2.71 ± 0.24 for the second.

Going from EAKERYTDRDQDEVNKG [NNF1] to EAPAGNIDTITDAMTES [MCD1], the protein stability index falls from 3.74 ± 0.11 to 3.16 ± 0.057.

Going from EASNTPIEHQFNPYGDN [PRE7] to EATAASHERFFLSQGLH [CSN12], the protein stability index falls from 3.38 ± 0.086 to 1.35 ± 0.18.

Going from EATLESKLKEEEAALLI [ESC2] to EATLLTNSNNGSSNNNT [SNF5], the protein stability index rises from 2.91 ± 0.05 to 3.21 ± 0.065.

EAVELVIGLDSEHDKKR [YML103C/NUP188] and EDALYLGKRSILAAAHR [PRE2] are within error of each other in protein stability index: 3.37 ± 0.047 for the first, 3.31 ± 0.051 for the second.

EDFDVEHFSDEETYEEK [RPO26] and EDGLGPLMAKSVKKAGA [ARP7] are within error of each other in protein stability index: 3.45 ± 0.11 for the first, 3.27 ± 0.14 for the second.

Compared with EDGMIIDVNLNFARQLL [RRP40], EDKFLYGDGNGKGDNDN [SWI3] is higher in protein stability index: 3.11 ± 0.063 for the first, 3.42 ± 0.15 for the second.

Going from EDLFDDYPSTSLDIRHD [NUT1] to EDLLHYIEEKHPTIYES [POP4], the protein stability index rises from 2.05 ± 0.056 to 3.27 ± 0.084.

Going from EDNGIVKALRNVPGVET [RPL4A] to EDTPANDSSATRSWRPP [RPB8], the protein stability index rises from 2.47 ± 0.19 to 2.95 ± 0.084.

Compared with EEAKEESDDDMGFGLFD [RPP1A], EEARRKHVSGKILGFVY [RPS22A] is lower in protein stability index: 3.26 ± 0.045 for the first, 2.9 ± 0.097 for the second.

EEEEDTTTTANINEVKK [NUT1] and EEEVTDQLEDLREHFKN [QCR6] are within error of each other in protein stability index: 3.33 ± 0.15 for the first, 3.29 ± 0.14 for the second.

Going from EEISFSLSEGCDILVAT [PRP28] to EELKNMFLYILKHLEEM [RRI2], the protein stability index falls from 2.96 ± 0.058 to 1.73 ± 0.097.

Going from EEQKSSDTSKPAFTFGA [YJL041W/NSP1] to EERSNNLLTPQPTNFTT [MCD1], the protein stability index falls from 3.23 ± 0.05 to 3.12 ± 0.05.

First: EETDDEDKQNIEINEDN [RRI2]
Second: EEVVSNDEGVWDLVDER [PRP8]
The protein stability index of the first is lower: 3.25 ± 0.038 for the first, 3.49 ± 0.058 for the second.

With EEYKKSLYAYCHSKLRG [GRR1] the protein stability index was 2.44 ± 0.075.
